In US20090176209A1 one finds percent of the total input genetic element DNA recovered in complex with the fusion protein on the mAb-coated surface data, which are given here for one substance.

Bounds are passed on as bounds.

The target in this experiment is scArc-Vκ(E5)-HA fusion protein (Vκ(E5) fused to the C-terminus of scArc; pIE3AVκ(E5) series constructs) (phage P22). Kind of experiment: emulsion expression of the pIE3a^4AVκ(E5)-derived template; capture on 3F10-coated PCR tubes; quantitative PCR.

“αHA rat mAb 3F10 (Roche), High Affinity anti-HA monoclonal antibody”: the percent of the total input genetic element DNA recovered in complex with the fusion protein on the mAb-coated surface was more than 23%.
